In the test the target is CD20 on autologous CD19+CD20+ B cells (human) (UniProt P11836). In words: cell-based or functional assay.

Several values for one entry are separate records, joined by “and”; a condition that tells them apart may be missing. Equal values may be shown once.

CD20 on autologous CD19+CD20+ B cells (human), sequence (P11836 whole entry): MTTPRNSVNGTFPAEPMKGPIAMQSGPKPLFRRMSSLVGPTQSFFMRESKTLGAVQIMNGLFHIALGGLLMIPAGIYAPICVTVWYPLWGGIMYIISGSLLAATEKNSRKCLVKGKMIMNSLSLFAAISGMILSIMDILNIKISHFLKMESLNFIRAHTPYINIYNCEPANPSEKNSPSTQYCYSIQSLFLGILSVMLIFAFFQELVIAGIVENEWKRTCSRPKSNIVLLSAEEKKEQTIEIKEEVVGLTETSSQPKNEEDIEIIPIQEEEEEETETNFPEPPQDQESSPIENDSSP

Take “CD20 CAR (CD8 leader, scFv directed against CD20 (B9E9), streptavidin tag, CD8 alpha linker and transmembrane domain, 4-1BB activation domain, CD3 zeta activation domain) (receptor)”: the fold of CD69 activation of Tregs, hFXP3-driven CAR, 24 h with autologous B cells was 1.9 fold and 1.8 fold; the fold of CD69 activation of Tregs, hPGK-driven CAR (TX028), 24 h with autologous B cells was 1.5 fold.

The values above are taken from patent WO2021028359A1.
